Two molecules from paper PMC4010968, “Nap1 stimulates homologous recombination by RAD51 and RAD54 in higher-ordered chromatin containing histone H1” (Scientific Reports, 2014) can be followed below.

Experiment [1] deals with T1, Human RAD54 (purified) (human, UniProt Q92698 1-747).
T1 construct: RAD54, human cDNA inserted into pFastBac HTc; purification details are in the Supplementary Methods; also called purified RAD54; source: recombinant human RAD54 baculovirus (pFastBac HTc vector), purified; details in Supplementary Methods
T1 sequence (looked up): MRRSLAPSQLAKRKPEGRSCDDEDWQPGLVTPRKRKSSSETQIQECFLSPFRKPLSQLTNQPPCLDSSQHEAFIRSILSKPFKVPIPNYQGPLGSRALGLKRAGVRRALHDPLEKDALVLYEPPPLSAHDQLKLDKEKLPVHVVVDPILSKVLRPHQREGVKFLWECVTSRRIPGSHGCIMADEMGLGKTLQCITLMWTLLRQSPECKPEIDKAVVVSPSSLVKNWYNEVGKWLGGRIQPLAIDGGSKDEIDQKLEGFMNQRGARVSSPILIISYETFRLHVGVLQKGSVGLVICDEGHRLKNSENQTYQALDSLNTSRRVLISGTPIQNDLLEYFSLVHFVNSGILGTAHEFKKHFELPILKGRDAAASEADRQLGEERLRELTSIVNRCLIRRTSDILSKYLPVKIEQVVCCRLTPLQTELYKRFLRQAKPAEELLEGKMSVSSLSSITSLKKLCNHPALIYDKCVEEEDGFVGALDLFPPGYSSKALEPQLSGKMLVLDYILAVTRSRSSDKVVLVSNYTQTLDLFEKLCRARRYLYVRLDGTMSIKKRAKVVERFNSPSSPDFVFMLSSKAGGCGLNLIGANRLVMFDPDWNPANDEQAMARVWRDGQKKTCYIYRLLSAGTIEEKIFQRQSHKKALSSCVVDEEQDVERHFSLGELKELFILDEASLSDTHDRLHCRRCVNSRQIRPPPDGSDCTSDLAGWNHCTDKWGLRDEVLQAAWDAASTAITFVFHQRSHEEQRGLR
Kind of experiment: pull-down; Nap1-conjugated beads with purified RAD51 alone or purified RAD54 alone; SDS-PAGE with Coomassie Brilliant Blue staining. Particulars: both partners purified.

The target in experiment [2] is T1, Human RAD54 (purified). The experiment can be described thus: native gel or EMSA; Nap1 or mutant incubated with the indicated amounts of RAD54; 5% native PAGE with Coomassie Brilliant Blue staining; RAD54 alone does not enter the gel. Particulars: both partners purified. On the technique in general: In EMSA bound probe runs differently from free probe, usually more slowly.

B1: Human Nap1 (purified, wild type) (natural protein, UniProt P55209 1-391, looked up)
chain: MADIDNKEQSELDQDLDDVEEVEEEETGEETKLKARQLTVQMMQNPQILAALQERLDGLVETPTGYIESLPRVVKRRVNALKNLQVKCAQIEAKFYEEVHDLERKYAVLYQPLFDKRFEIINAIYEPTEEECEWKPDEEDEISEELKEKAKIEDEKKDEEKEDPKGIPEFWLTVFKNVDLLSDMVQEHDEPILKHLKDIKVKFSDAGQPMSFVLEFHFEPNEYFTNEVLTKTYRMRSEPDDSDPFSFDGPEIMGCTGCQIDWKKGKNVTLKTIKKKQKHKGRGTVRTVTKTVSNDSFFNFFAPPEVPESGDLDDDAEAILAADFEIGHFLRERIIPRSVLYFTGEAIEDDDDDYDEEGEEADEEGEEEGDEENDPDYDPKKDQNPAECKQQ
notes: Nap1 (histone chaperone, nucleosome assembly protein 1), human; also called purified Nap1; wild type Nap1
With B1, the binding result with Human RAD54 (purified) [1] is given as “binds”.

B2: Nap1(E215,219,222,227K) mutant (natural protein, human, UniProt P55209 1-391, looked up)
chain: MADIDNKEQSELDQDLDDVEEVEEEETGEETKLKARQLTVQMMQNPQILAALQERLDGLVETPTGYIESLPRVVKRRVNALKNLQVKCAQIEAKFYEEVHDLERKYAVLYQPLFDKRFEIINAIYEPTEEECEWKPDEEDEISEELKEKAKIEDEKKDEEKEDPKGIPEFWLTVFKNVDLLSDMVQEHDEPILKHLKDIKVKFSDAGQPMSFVLKFHFKPNKYFTNKVLTKTYRMRSEPDDSDPFSFDGPEIMGCTGCQIDWKKGKNVTLKTIKKKQKHKGRGTVRTVTKTVSNDSFFNFFAPPEVPESGDLDDDAEAILAADFEIGHFLRERIIPRSVLYFTGEAIEDDDDDYDEEGEEADEEGEEEGDEENDPDYDPKKDQNPAECKQQ
notes: Nap1, human, with Glu215, Glu219, Glu222 and Glu227 replaced by Lys; A trace amount of a read-through product was present as a contaminant in the purified fraction; also called Nap1(E215K,E219K,E222K,E227K) mutant; Nap1 mutant
B2: the binding result in the experiment with Human RAD54 (purified) [2] was “binds”.
